In paper PMC11836926:

Columns and labels:
Test in all cases: potentiometry
[1] = target: His323; settings: 298 K, 0.1 M NaClO4, none (HClO4-acidified solution titrated with 0.1 M carbonate-free NaOH under argon)
[2] = target: Cys143; settings: 298 K, 0.1 M NaClO4, none (HClO4-acidified solution titrated with 0.1 M carbonate-free NaOH under argon)
[3] = target: Lys70; settings: 298 K, 0.1 M NaClO4, none (HClO4-acidified solution titrated with 0.1 M carbonate-free NaOH under argon)
[4] = target: Asp127; settings: 298 K; 0.1 M NaClO4; none (HClO4-acidified solution titrated with 0.1 M carbonate-free NaOH under argon); free (apo) peptide
[5] = Cu(II)-bound, mononuclear 1:1 complex

GACPNRMDAAAAAAAADHIMD
pKa [1, 5]: 5.05
pKa ([1]; free (apo) peptide): 6.92
pKa [2, 5]: 7.49
pKa ([2]; free (apo) peptide): 9.56

EMMTPHHQDAIDMAEMALQKAEHPE
pKa [3, 5]: 9.56
pKa ([3]; free (apo) peptide): 9.94

GMMGMHQGHGMMAMD
pKa [4]: 3.80
